Data published in paper doi:10.1101/2025.05.26.656073 (bioRxiv, 2025).
Numbering of substitutions follows the chain as printed. Names and notes keep the numbering of the source.

Experiments:
[1] = target: T1, Orange Carotenoid Protein, dark-adapted state (OCP^O), wild type, canthaxanthin-binding holo form (Synechocystis sp. PCC 6803), P74102; assay: SEC; conditions: remark: other sources report otherwise
T1 chain: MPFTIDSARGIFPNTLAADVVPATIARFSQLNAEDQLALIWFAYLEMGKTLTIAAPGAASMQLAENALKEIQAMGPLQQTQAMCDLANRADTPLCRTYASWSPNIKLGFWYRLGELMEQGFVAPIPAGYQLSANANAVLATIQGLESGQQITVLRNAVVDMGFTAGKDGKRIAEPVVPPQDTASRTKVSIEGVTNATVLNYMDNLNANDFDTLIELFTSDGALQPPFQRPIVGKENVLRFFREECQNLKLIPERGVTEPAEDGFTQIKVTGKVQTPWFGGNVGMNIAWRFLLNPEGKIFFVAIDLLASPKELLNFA

[2] = target: T1, Orange Carotenoid Protein, dark-adapted …; assay: transient grating spectroscopy; conditions: remark: other sources report otherwise
[3] = target: T1, Orange Carotenoid Protein, dark-adapted …; assay: SAXS; conditions: remark: other sources report otherwise
[4] = target: T2, apo-OCP (carotenoid-free Orange Carotenoid Protein) (Synechocystis sp. PCC 6803), P74102; assay: SEC; conditions: remark: other sources report otherwise
T2 chain: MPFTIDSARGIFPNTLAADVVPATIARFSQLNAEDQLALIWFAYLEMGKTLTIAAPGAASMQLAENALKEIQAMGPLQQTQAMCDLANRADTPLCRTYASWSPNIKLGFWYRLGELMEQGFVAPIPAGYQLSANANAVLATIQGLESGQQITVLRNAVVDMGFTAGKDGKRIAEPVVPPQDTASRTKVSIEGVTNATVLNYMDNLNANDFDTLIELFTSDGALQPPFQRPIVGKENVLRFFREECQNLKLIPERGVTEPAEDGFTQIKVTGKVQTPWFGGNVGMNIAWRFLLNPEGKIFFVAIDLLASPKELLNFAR

[5] = target: T2, apo-OCP (carotenoid-free Orange …); assay: SAXS; conditions: remark: other sources report otherwise
[6] = target: T3, Orange Carotenoid Protein, light-adapted state (OCP^R), wild type, canthaxanthin-binding holo form (Synechocystis sp. PCC 6803), P74102; assay: SEC; conditions: remark: other sources report otherwise
T3 chain: T2 chain

[7] = target: T3, Orange Carotenoid Protein, …; assay: SAXS; conditions: remark: other sources report otherwise
SEC = target: the molecule itself; assay: SEC

B1: Orange Carotenoid Protein, dark-adapted state (OCP^O), wild type, canthaxanthin-binding holo form, P74102 1-316 (natural protein)
chain: T1 chain
B1 showed a Kd [1] of 10 µM, a stoichiometry N [1] of 2 and a fitted dimer fraction (100 µM) [2] of 0.6. The k1d (rate constant of the photo-induced dissociation of the OCP^O dimer) [2] was 1000 s⁻¹ and the stoichiometry N [3] was 2.

B2: apo-OCP (carotenoid-free Orange Carotenoid Protein), P74102 1-317 (natural protein)
chain: T2 chain
B2 was tested, and the Kd [4] was 0.5 µM, the stoichiometry N [4] was 2 and the stoichiometry N [5] was 2.

B3: Orange Carotenoid Protein, light-adapted state (OCP^R), wild type, canthaxanthin-binding holo form, P74102 1-317 (natural protein)
chain: T2 chain
For B3, the Kd [6] was 1.8 µM, the stoichiometry N [6] was 2 and the stoichiometry N [7] was 2.

B4: OCP(R27L) mutant, light-adapted state (natural protein)
chain: T2 chain with R27L
In the case of B4, the “stoichiometry N” value (SEC) is reported as 2.
